Laboratory results: paper PMC5085866
Where two headings read alike, the source gives them in different places.

Legend:
Assay in all cases: AUC
[1] = biological target: Enterococcus faecium LiaR W73C, full length (Enterococcus faecium)
[2] = biological target: Enterococcus faecium LiaR W73C, full length (Enterococcus faecium); remark: listed apart in the source
[3] = biological target: Enterococcus faecium LiaR DNA binding domain (residues 140-210) (Enterococcus faecium)
[4] = biological target: Enterococcus faecium LiaR receiver domain (residues 1-139) W73C (Enterococcus faecium)
[5] = biological target: Enterococcus faecium LiaR receiver domain (residues 1-139) W73C (Enterococcus faecium); remark: listed apart in the source
[6] = biological target: Enterococcus faecium LiaR receiver domain (residues 1-139) (Enterococcus faecium)

Enterococcus faecium LiaR W73C, full length (natural protein)
Kd [1]: 236 µM | Kd [2]: 182 µM

Enterococcus faecium LiaR DNA binding domain (residues 140-210) (domain or fragment)
Kd [3]: 0.4 µM

Enterococcus faecium LiaR receiver domain (residues 1-139) W73C (domain or fragment)
Kd [4]: 0.8 µM | Kd [5]: 94 µM

Enterococcus faecium LiaR receiver domain (residues 1-139) (domain or fragment)
Kd [6]: 676 µM
